Results reported in the RNAGym collection of RNA variant scans (doi:10.1073/pnas.2313332121).

B1: TPR t1 (parent)
chain: GACCAAUCUGCCCUCAGAGCUCGAGAACAUCUUCGGAUGCAGAGGAGGCAGGCUUCGGUGGCGCGAUAGCGCCAACGUCCUCAACCUCCAAUGCAUCCCACCACAUGAUGAUGCCUGAAGAGCCUUGGUUUUUUG

Variants of: B1
Assay: polymerase ribozyme fitness, log enrichment relative to wild type (log ratio); higher = more active; in vitro selection for triplet polymerase activity
Procedure, shortened: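 Libraries of mutants in each subunit of a heterodimeric triplet polymerase ribozyme were generated by PCR and transcribed. In triplicate, each went through one in vitro selection round: annealing with biotinylated primer, partner subunit and triplets; frozen incubation at −7 °C; gel excision of extended constructs; streptavidin-bead capture; RT-PCR. Fitness, taken from Illumina sequencing of input and output libraries, is the logarithm of a genotype's enrichment over wild-type enrichment, averaged across replicates with inverse-variance weights. The logarithm is base 2, and genotypes needed ≥10 input reads and ≥1 read per output to be kept.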
For C72U G117U, the “polymerase ribozyme fitness (log ratio)” value was -2.27. With C73G A118U the “polymerase ribozyme fitness (log ratio)” value was -0.0973. In the case of C72G C99A C114G U129A U132A G135C, the “polymerase ribozyme fitness (log ratio)” value is reported as -4.93. With C73A U112A A121U U125A the “polymerase ribozyme fitness (log ratio)” value was 1.73. In the case of C72U G113C A118C, the “polymerase ribozyme fitness (log ratio)” value is reported as -3.51. In the case of C72U C82A A84C A111C, the “polymerase ribozyme fitness (log ratio)” value is reported as 0.731. For C72U A84C C124U, the “polymerase ribozyme fitness (log ratio)” value was 1.07. In the case of C73G C89A C104U A119U, the “polymerase ribozyme fitness (log ratio)” value is reported as -3.03. With C73G C98U U129C the “polymerase ribozyme fitness (log ratio)” value was -1.94. In the case of C72G G77C A95G C101G, the “polymerase ribozyme fitness (log ratio)” value is reported as -2.74. For C72U C114U C115U, the “polymerase ribozyme fitness (log ratio)” value was -7. With C72U U109G G113A the “polymerase ribozyme fitness (log ratio)” value was -5.96. For C72U C101A C115A C123A, the “polymerase ribozyme fitness (log ratio)” value was -3.06. In the case of C73A C86U U87A G117A U132A, the “polymerase ribozyme fitness (log ratio)” value is reported as -3.67. With C72G U130A the “polymerase ribozyme fitness (log ratio)” value was -0.458. For C73A U116A C124A, the “polymerase ribozyme fitness (log ratio)” value was 0.809. For C73A G110C U125A U129A, the “polymerase ribozyme fitness (log ratio)” value was -6.92. In the case of C72U U78C A83U A90G A121G, the “polymerase ribozyme fitness (log ratio)” value is reported as 1.89. With C72U G122A the “polymerase ribozyme fitness (log ratio)” value was -0.576. In the case of C73A C88A G117U, the “polymerase ribozyme fitness (log ratio)” value is reported as -4.07. In the case of C73G G113C C123U G135A, the “polymerase ribozyme fitness (log ratio)” value is reported as -3.03. In the case of C72U C101G C115U, the “polymerase ribozyme fitness (log ratio)” value is reported as -3.38. In the case of C73A C86A, the “polymerase ribozyme fitness (log ratio)” value is reported as -0.668. For C72U C73A U81A C85U G122A, the “polymerase ribozyme fitness (log ratio)” value was -4.88. For C72U C88A, the “polymerase ribozyme fitness (log ratio)” value was 0.024. With C72U C88U the “polymerase ribozyme fitness (log ratio)” value was 0.0321. With C72U C88G the “polymerase ribozyme fitness (log ratio)” value was -0.779. With C73A A95G C104A G110U the “polymerase ribozyme fitness (log ratio)” value was -3.5. For C73A C82G G117U U130C, the “polymerase ribozyme fitness (log ratio)” value was -0.953. For C72U U78A A90U C123U, the “polymerase ribozyme fitness (log ratio)” value was -1.05. With C73G C85G G120A the “polymerase ribozyme fitness (log ratio)” value was -2.18. With C72U C102G U133A the “polymerase ribozyme fitness (log ratio)” value was -5.27. For C73U A108U, the “polymerase ribozyme fitness (log ratio)” value was -5.75. For C73U G77A G120A, the “polymerase ribozyme fitness (log ratio)” value was 0.241. For C72U C79U G122A, the “polymerase ribozyme fitness (log ratio)” value was -0.67. In the case of C73U C97A, the “polymerase ribozyme fitness (log ratio)” value is reported as -3.58. In the case of C73G G77U U125G U133G, the “polymerase ribozyme fitness (log ratio)” value is reported as -1.69. In the case of C72U A91G, the “polymerase ribozyme fitness (log ratio)” value is reported as -1.21. In the case of C73G A95C C124U G128U U129C, the “polymerase ribozyme fitness (log ratio)” value is reported as -1.71. In the case of C73A G110A G120A, the “polymerase ribozyme fitness (log ratio)” value is reported as -1.61. With C72U U132G G135U the “polymerase ribozyme fitness (log ratio)” value was -0.759. For C72G U112G, the “polymerase ribozyme fitness (log ratio)” value was -0.196. For C72G U112C, the “polymerase ribozyme fitness (log ratio)” value was 1.51. For C72G U112A, the “polymerase ribozyme fitness (log ratio)” value was 0.104. For C73A C85A G117A A119G U133C G135C, the “polymerase ribozyme fitness (log ratio)” value was -0.124. For C72U U81A A91U A118U, the “polymerase ribozyme fitness (log ratio)” value was -3.42. For C73A C79G U112A, the “polymerase ribozyme fitness (log ratio)” value was -0.66. In the case of C73A C99U A118G, the “polymerase ribozyme fitness (log ratio)” value is reported as -3. For C73U A100C, the “polymerase ribozyme fitness (log ratio)” value was -1.34. With C73U A83U G110A G128U the “polymerase ribozyme fitness (log ratio)” value was -4.9. With C72U U78C C82G C101A A121C the “polymerase ribozyme fitness (log ratio)” value was -0.0659. For C73A A90G G107A G117U, the “polymerase ribozyme fitness (log ratio)” value was -6.33. In the case of C72G C99U, the “polymerase ribozyme fitness (log ratio)” value is reported as -3.45. With C73G A91C G127A the “polymerase ribozyme fitness (log ratio)” value was -3.34. For C72U A84U C85U C104U, the “polymerase ribozyme fitness (log ratio)” value was -0.48. In the case of C72U A118U, the “polymerase ribozyme fitness (log ratio)” value is reported as 0.0221. For C72U C76U G122A, the “polymerase ribozyme fitness (log ratio)” value was -1.21. With C72U C124U G135A the “polymerase ribozyme fitness (log ratio)” value was 2.03. With C72G C115U the “polymerase ribozyme fitness (log ratio)” value was -1.03. For C72G C115A, the “polymerase ribozyme fitness (log ratio)” value was -0.17. In the case of C72U A118U G120U, the “polymerase ribozyme fitness (log ratio)” value is reported as -0.322. In the case of C72G G77U, the “polymerase ribozyme fitness (log ratio)” value is reported as -1.71. In the case of C72G U78G C97U, the “polymerase ribozyme fitness (log ratio)” value is reported as 0.186. In the case of C73A U92A C104U, the “polymerase ribozyme fitness (log ratio)” value is reported as -2.28. In the case of C73A C80G, the “polymerase ribozyme fitness (log ratio)” value is reported as -5.69. For C73A G93A, the “polymerase ribozyme fitness (log ratio)” value was -1.04. For C72U G110A U130A, the “polymerase ribozyme fitness (log ratio)” value was -1.72. For C73U U96A U116G U130A, the “polymerase ribozyme fitness (log ratio)” value was -3. With C72U C79A the “polymerase ribozyme fitness (log ratio)” value was -3.07. With C73G A74U C89U the “polymerase ribozyme fitness (log ratio)” value was -2.48. In the case of C73G G93U, the “polymerase ribozyme fitness (log ratio)” value is reported as -3.13. For C73G G93A, the “polymerase ribozyme fitness (log ratio)” value was -1.13. In the case of C72U G93A C115U, the “polymerase ribozyme fitness (log ratio)” value is reported as -1.52. With C72U G93C the “polymerase ribozyme fitness (log ratio)” value was -0.856. For C73U A83G, the “polymerase ribozyme fitness (log ratio)” value was -1.56. For C72U C79U C82A, the “polymerase ribozyme fitness (log ratio)” value was -0.964. With C72U G93U C115U the “polymerase ribozyme fitness (log ratio)” value was -2.06. With C72G U87C G93A C104G C123G the “polymerase ribozyme fitness (log ratio)” value was -6.53. In the case of C73A A119U U132C, the “polymerase ribozyme fitness (log ratio)” value is reported as -0.485. With C73G U78A the “polymerase ribozyme fitness (log ratio)” value was -0.494. For C73A C94U U130A, the “polymerase ribozyme fitness (log ratio)” value was -0.716. For C72G U109G U125G, the “polymerase ribozyme fitness (log ratio)” value was -4.97. With C72U U92G the “polymerase ribozyme fitness (log ratio)” value was -2.59. For C72G G117C, the “polymerase ribozyme fitness (log ratio)” value was -3.87.
